Source: US20090304754

Experiments:
[1] = molecular target: Flavobacterium meningosepticum prolyl endopeptidase, unmodified (UniProt P27028)
[2] = molecular target: Flavobacterium meningosepticum prolyl endopeptidase conjugated with 20,000 Da PEG (UniProt P27028)
[3] = molecular target: T1, 26mer peptide derived from gamma-gliadin
T1 chain: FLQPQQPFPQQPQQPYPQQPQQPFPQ

chymotrypsin
kcat/KM of chymotrypsin-catalyzed proteolysis of FM PEP (loss of PEP activity, Michaelis-Menten fit) [1]: The chymotrypsin proteolysis exhibited a kcat/KM of 5.0 for the unmodified PEP

trypsin
kcat/KM of trypsin-catalyzed proteolysis of FM PEP (loss of PEP activity, Michaelis-Menten fit) [2]: a kcat/KM of 3.4 was obtained for the PEGylated PEP | kcat/KM of trypsin-catalyzed proteolysis of FM PEP (loss of PEP activity, Michaelis-Menten fit) [1]: a kcat/KM of 11.7 M^-1 sec-1 was obtained for unmodified PEP

B1: Flavobacterium meningosepticum prolyl endopeptidase, unmodified (protein)
chain: QNSNVLKYPETKKVSHTDTYFGTQVSDPYRWLEDDRAEDTKAWVQQEVKFTQDYLAQIPFRDQLKKQLMDIWNYEKISAPFKKGKYTYFSKNDGLQAQSVLYRKDAAGKTEVFLDPNKFSEKGTTSLASVSFNKKGTLVAYSISEGGSDWNKIIILDAETKKQLDETLLDVKFSGISWLGDEGFFYSSYDKPKEGSVLSGMTDKHKVYFHKLGTKQSQDELIIGGDKFPRRYIGAYVTDDQRYLVVSAANATNGNELYIKDLKNKTDFIPIITGFDSNVNVADTDGDTLYLFTDKDAPNKRLVKTTIQNPKAETWKDVIAETSEPLEINTGGGYFFATYMKDAIDQVKQYDKNGKLVRAIKLPGSGNASGFGGEKTEKDLYYSFTNYITPPTIFKYNVTTGNSEVYQKPKVKFNPENYVSEQVFYTSSDGTKIPMMISYKKGLKKDGKNPTILYSYGGFNISLQPAFSVVNAIWMENGGIYAVPNIRGGGEYGKKWHDAGTKMQKKNVFNDFIAAGEYLQKNGYTSKEYMALSGRSNGGLLVGATMTMRPDLAKVAFPGVGVLDMLRYNKFTAGAGWAYDYGTAEDSKEMFEYLKSYSPVHNVKAGTCYPSTMVITSDHDDRVVPAHSFKFGSELQAKQSCKNPILIRIETNAGHGAGRSTEQVVAENADLLSFALYEMGIKSLK
time course of cleavage of the 26mer peptide, HPLC [3]: PEGylated enzymes are able to cleave longer substrates at rates comparable to unmodified enzyme

B2: Flavobacterium meningosepticum prolyl endopeptidase conjugated with 20,000 Da PEG (protein)
chain: QNSNVLKYPETKKVSHTDTYFGTQVSDPYRWLEDDRAEDTKAWVQQEVKFTQDYLAQIPFRDQLKKQLMDIWNYEKISAPFKKGKYTYFSKNDGLQAQSVLYRKDAAGKTEVFLDPNKFSEKGTTSLASVSFNKKGTLVAYSISEGGSDWNKIIILDAETKKQLDETLLDVKFSGISWLGDEGFFYSSYDKPKEGSVLSGMTDKHKVYFHKLGTKQSQDELIIGGDKFPRRYIGAYVTDDQRYLVVSAANATNGNELYIKDLKNKTDFIPIITGFDSNVNVADTDGDTLYLFTDKDAPNKRLVKTTIQNPKAETWKDVIAETSEPLEINTGGGYFFATYMKDAIDQVKQYDKNGKLVRAIKLPGSGNASGFGGEKTEKDLYYSFTNYITPPTIFKYNVTTGNSEVYQKPKVKFNPENYVSEQVFYTSSDGTKIPMMISYKKGLKKDGKNPTILYSYGGFNISLQPAFSVVNAIWMENGGIYAVPNIRGGGEYGKKWHDAGTKMQKKNVFNDFIAAGEYLQKNGYTSKEYMALSGRSNGGLLVGATMTMRPDLAKVAFPGVGVLDMLRYNKFTAGAGWAYDYGTAEDSKEMFEYLKSYSPVHNVKAGTCYPSTMVITSDHDDRVVPAHSFKFGSELQAKQSCKNPILIRIETNAGHGAGRSTEQVVAENADLLSFALYEMGIKSLK
time course of cleavage of the 26mer peptide, HPLC (disappearance of the intact 26mer peak) [3]: both the 5 kDa and 20 kDa PEGylated FM PEPs were 8-12% faster in cleaving the peptide than the unmodified FM PEP

B3: Flavobacterium meningosepticum prolyl endopeptidase conjugated with 5000 Da PEG (protein)
chain: QNSNVLKYPETKKVSHTDTYFGTQVSDPYRWLEDDRAEDTKAWVQQEVKFTQDYLAQIPFRDQLKKQLMDIWNYEKISAPFKKGKYTYFSKNDGLQAQSVLYRKDAAGKTEVFLDPNKFSEKGTTSLASVSFNKKGTLVAYSISEGGSDWNKIIILDAETKKQLDETLLDVKFSGISWLGDEGFFYSSYDKPKEGSVLSGMTDKHKVYFHKLGTKQSQDELIIGGDKFPRRYIGAYVTDDQRYLVVSAANATNGNELYIKDLKNKTDFIPIITGFDSNVNVADTDGDTLYLFTDKDAPNKRLVKTTIQNPKAETWKDVIAETSEPLEINTGGGYFFATYMKDAIDQVKQYDKNGKLVRAIKLPGSGNASGFGGEKTEKDLYYSFTNYITPPTIFKYNVTTGNSEVYQKPKVKFNPENYVSEQVFYTSSDGTKIPMMISYKKGLKKDGKNPTILYSYGGFNISLQPAFSVVNAIWMENGGIYAVPNIRGGGEYGKKWHDAGTKMQKKNVFNDFIAAGEYLQKNGYTSKEYMALSGRSNGGLLVGATMTMRPDLAKVAFPGVGVLDMLRYNKFTAGAGWAYDYGTAEDSKEMFEYLKSYSPVHNVKAGTCYPSTMVITSDHDDRVVPAHSFKFGSELQAKQSCKNPILIRIETNAGHGAGRSTEQVVAENADLLSFALYEMGIKSLK
time course of cleavage of the 26mer peptide, HPLC (disappearance of the intact 26mer peak) [3]: both the 5 kDa and 20 kDa PEGylated FM PEPs were 8-12% faster in cleaving the peptide than the unmodified FM PEP
